Measured values: the DeepSol protein solubility set

Test: soluble on expression in E. coli; label from the status in PepcDB or PDB records

Sequence	soluble on expression in E. coli
MGSDKIHHHHHHMATDASGGVGEKAKDHVHVPYEVVSYYAARVALLECMSVGATPFTFLVQNFSGDEPYQKMIDGINRALGEANQAQATIAGSTESNMVLEQSCLGVTVIGRVHQSALKIGITPKDAGIALLGKPLVGEEVVSQEKDVFPLKQFDELLQEEGVYEIIPVGSKGVKYELEVLAATNEWNTLQVPVNGNVDLTKSSGPATSLLITFDGTMEALLKAKYSSWWTTLASKIST	not soluble
MGSDKIHHHHHHMATELKTFTDSQFIGKPVLADIEFIPHLEKINDFAATNGLKIFVTSSARPWGVPVGGAIVSPAKMSNHLIGHAIDMNIQIGGKLYTSNELGDFNSLPPPIKAFITTIRNHPVLRWGGDFGDPVHIDDGLNLHNPNLWKDKFPIIQSELTGLTQPGIRAVNSPRLLFLTTPLMKGDDIKVVQEKLIGKGFDLGITGADGFFGQATANAVIKFQDQEDLDPVDGIVGDKTKKALGL	not soluble
MGSDKIHHHHHHMATSQWRLIASICFLALTGWSTKAVSAETDKPPFYQVQWQGKSAYLLGSIHIGRADFYPLPTQIETALGKAKGLVVEVDMNKADSNALLRQYGRADKTKGLDWQSRDKQTVESMTPYCAATANVCQSIQSFAPWLQATQVNLIRYNNLGYSTDYGVDMQLMARHAALPVYQLETAESQFQLLASFDSQAQWSMVREAISTSDADLLSLIAAWRSGNEAELDSIMQEQMGGEGDTEMLEKILWRRNHVMADGIIKLMGSTEITSPLFVVVGAGHVVGDKSVVQLLEQAGAKVSACWKQTCQ	not soluble
MGSDKIHHHHHHMAVEKSTSIKNNSIKTVNVAVAVIHYQNQYLLGFRAASQHQGNRYEFVGGKIDAHETAKQALIREVAEETGINIANNTAVKLGRLHHDYGDKQVCLQVYRIEVTAQQYAQYKNLSCGLEGQKLTWVDKAKLLAGHYDLPAANKTILVWLQLPVQITITYPLAHFNGFPNPRAAWSQYHHEHIAADALVYMRIKVAGAEDSIERLLQLRSDIKAIAPDHLHTDKADNAVINRQIIAGHLTQTQLMQWSSSVAKESMSYSALSTNLPLIVSCHDADSINAANQLAFFRLQQQLPPVIGIFLAPVECTQTHPDTPPLGWEAWSKLAELADMPVIGLGGLSPVMSEQAMLHGGIAVAGIRQFLK	not soluble
MGSDKIHHHHHHMDDHGRSRPTQPTLYVLDTNVLIHDPNALLNFQEHRVAIPMTVLEELDKLKTGKHTIAAECRQAIRLIDQVLGEATPEQVEGGVPIQRGKNGPSGSLSILMSKRAEPITWLPEHLNDNKIINQLVELKSRHSGVRVVLVTKDINMRLKARACGVDAEDYHTDQLIDDVALLSRGYHSLAGSFWDRVSKVETRQDHGRTWHRVQLTDNLPAVHINEFIVDEQGFVGWIKGIQQDELTILDLHQEPLLHQEAWGLRPRDVYQSLALYALLDPDIHLVNLSGAAGSGKTILALAAAIEQTMVSKRYRRIIATRSVQGLDEDIGFLPGTEAEKMEPWLGAITDNLEALHMDDECTHGSVDYILSKVPLQFKSLNYIRGRSFQQSLILIDECQNLTPHQMKTIITRAGSGSKVICLGNLAQIDTPYLSATSSGLTYLTERFKDFPHGVHVTLQGVPRSVLAEYAEAHM	not soluble
MGSDKIHHHHHHMDDRIVVTTQQVRALIASQFPQWAALDVQPVDLSGWDNRSFRLGEDMLVRMPSAERYVAQVEKEHRWLPELGPLLPVPIPAPLALGQPGEQYPFCWSVYRWLKGEPLARYLDSIELSAIAIDVAAFLKALHGIDASAGPPAGAHNFHRGGSLAVYDGEARASAARLANEVDQALAMEIWQLALSSHWQGKGVWVHGDIAEGNLLVQDGRLSAVIDFGSSGVGDPSSDLILAWNVLDAHSRAVFRQALGLDEATWQRGRGWALWKALIVLDAERGRNEKMAEWSRRTLREIFADHLEN	not soluble
MGSDKIHHHHHHMDDRPLFGPFARKGSYSRVQVFDHLFADDRFTALYQEIAILPEVDELMLYRRYLQKEDRVLVHGNFSATLFNTLCAEGYDLYLVESELTRIAGIADPYLHRVYGLSNEVVDVMGSHAFNKIILPGTTIARYSRGELLLFFRNIRHLLATDGQLLISIHNADYLRQNVQPIASRRMEDCTLFYGQKVDRDRLIFNTYLKSASDEKVGYVVEHLYETDTLFEFAKLSRYRGRTLYAGKSISILEFDKIG	not soluble
MGSDKIHHHHHHMDGGFMQKKVLLVGLGVMGSRIAANFASAGKLAGVYDRNVDKAKNTASMLKVGFYRDLGEAVKNSDIIVTMLYDDRSVKEVYSQMEQGVQGKVFIDMSTISPDTSIEIAKRIKEKGGKMYDAPVIGTSIAVEKKALVVLVGGDLSGYDEVRDLISATANQVVYMGDNGSGLYAKLVNNLFLGSYMASLAEAVRFGRKNGIPDSTISDVLTKYSSARSPTSDLKVPKMISEDYSVQFSIKNMLKDMEIVDRMASEKRIALPVASLALQLFRYLMDSGYGEEDIAAIYRALR	not soluble
MGSDKIHHHHHHMDIDLARTFLEIARSGSFVAAAERLHLTQTAVTARIQNLEGQLGCRLFVRNRAGARLTADGEHFLGYASQLVQTWDAARRDLPLPDGFRNLLNLGGEVSLCNPLLLNWMRRLREAIPGHAVRVEIGQGADLLKQLEQGALDAALVYQPEYWPGLQVEQLLEEKLVMVRSVLSAEPYLYVDWGPDFRSQHDAALPDRAKAALACNLGPLALQYIMQNGGSGYFRTRVVSSYLDGGTLQRVEQAPEFAYPTYLVYSRERLSPTLRHAFQLLREVVREDSDWSQRWDYVI	not soluble
MGSDKIHHHHHHMDIDRTILVQIQGLLVFESPLHHDERGYFLENWRKKDLLANGVPESFFHHKLQNNVSVSKQGVIRGMHCQGYEKLMTVAYGTFKMIFIDLRIDSPTYKSVDVIDVQPGRAVFVPGGVANGAQSLVNNGILNYLVADYYDPHKNYLGITPLDKDANLSWDSLLKPIISEKDQAAKSFKEVLEIIESSKKKVALIGSTGAVGKVLFDTLRKQSDIDLSCFNRNNIEEALKDFYDMVICTAPSSEKLLTNLSLKNDDAEIEKLVNVLKNIQTGHMILVSTKSVFDSGARYSAIHQKIYNSVIEAHQNSNTIYIMDTLYGKTLKKGFINDLLSRQWTYISNDIVLDKPELENYYQKVNDQLWSLVEPLPNELLSTLEPISDIYPDEMCYQVTAINDLVSHLMANLNRIDGVKLGIDKSEIFTGRQIKNLLKNPDNSTLGRYFKKQEGDFNLENL	not soluble
MGSDKIHHHHHHMDIENMKAFNKVAELKSISAAANELHHLQSNMSNKIKNIEKQFQTQLFFRHSNGVELTKEGEKIYQQFKKMILLWEETIDIINNEEETISIGITQSSLPMEFNTIIKEFYQQFPNKKLSIVSGSTSELIPKIANRELTIAYVAELEKENLFQDSQIISQTLSWDKLVFAGNTAGKSVQKILAEERLYVFSKQCYSYRALAALINDFNIPNVSISEINIPETLVEICNNELGVGIIPESIALNYHFLNYETLPTEYAALRKTLIYHADHTISNGEKWLIEKSKPAFKS	not soluble
MGSDKIHHHHHHMDIKQLQYLCNLEKERHFGRAAEASFVSQPTLSMRLKNLERELDLALINRGNNFEGFTAEGERVLAWAREIVSVYQGLKLEVASLKRGVSGVLRIGAVPQSSIALSSLLAAVNKEYPQLDFQISLFSADQLLEALNAHSVDVGIGFFEFSTLQELHFQASPLTEQGVDLLFHPHHFPQLVGDAPLALDALSDVPLCLAEASRYFRRYLDSHFREMGVSPWVKVESASVLQLIQSVYVGLGCGIVPHGSLIPEMTPALTLRPLQFPPMRRQPAVVIAQAGRATALAQNFFDVAQEWLQAQS	not soluble
MGSDKIHHHHHHMDKFLYISMSGAKQNMNELALRANNLANANTDGFKSDMAQARSMQAFGEGLPTRVFAMVETPSANFRSGPIKSTGRDLDVAIKGDGWFAVQAQDGSEAYTRSGSLSFDSTGLLHNDRGNPVMGDAGPIVLPLPIEKVTISQDGIISVRPQGATTEVVEEVGRLKLVNPGNAQMMRGEDGLFRLVSGDPAPADPSVSVESGAVEGSNVNSVDEMVSLIDLQRQFELQVKMMKTAEENDRASSSLMRIS	not soluble
MGSDKIHHHHHHMDKKSSVSPLPTKALSDDKNSPITVWHIGGEDIRLRIPLLLKLREKGFNVGAVGSEDGNAFADNQIPYFRYTLERGINPWADIYTRSQLSALFRQHQPDIVHSFDTKPAMIAPIVAMKTGIPGRVRTITGMGYVFSSTSTLALALRPIYRHLQRQAAIATGITIFQNPDDREYFCKHKMVLDGRDDLVLGSGIDVEGLMKNSAEPEKLAATRRELGLEGQLVVTMISRLVISKGVREYLQVASIVCQQMKNVTFLLIGSVSSEGGQAIPIQEIHQQAGVVRYLGPRNDIPTLLNLSDVFVLPSYYREGVPRVLLEAATMELPLITTDMPGCKEVVKDGWNGLLVPPRDTKALATAILKLLNSPEQRNLMGKRSRVHVQTNFSLNQVADAYADIYNRVLKLPKTLK	not soluble
MGSDKIHHHHHHMDNLLSIKSLCDEDIDFVTEISRKEGFAPGVGDLRIYQNTDKQGLWVGWLDNNPIGCIAGVRYNQYYGFLGLFLVIEEYRGRGFGLQLWKKALSHLSDLPCVGLEAAPERITDYSKWGFTISSKTTRWQLLGDGKLVEEYSKNDDFDDFSFVEGSSIPQDAVKKFDEKRETTPRPHFLSNWLNHPAGKVIAVIDKKNCCHGFGRIRPCLLQNGDGWRIGPLMADTPMLLQILLKKLIESHPGLIIIDAPGLNKSASEVFRKLGFKSESETFRMYRGSQPPVSMNDVYGLACLELG	not soluble
MGSDKIHHHHHHMDPTTMPAPAPINYSQTWTFFEGEWHDGNVPIMGPRTHAAWLGSMVFDGARAFEGVTPDLDQHLARINWSATNFKLNALVDKATWLGLVQDGLKRFAGNAELYIRPMYWAQNGVGGGVLFDPDTTNWCLCIYEAPMPKPTGLSITLSPFRRPTAECAPVEAKAGCLYPNNSRAMMEAKSRGFDNCLLRDMLGHIAELGNSNIFMAKDGVVYTPAANGTFLSGITRQRVIELLRGDGITVLETSLSYRDFETADEIFASGNFAKVQPIIRIDDRSLQPGPFYAKARKLYWEFAHG	not soluble
MGSDKIHHHHHHMDRFDLGIVKVHRIEEWRGTFSPPAELFDGFSPDGWEPHAEEFAPEYYDPVSGKLFAFLQSWVLDTGTQRILFDTGAGNDKDRPNLPIFGNLQTGFLDNLAAAGFQPEDIDVVVCSHIHVDHVGWNTRLVDGRWEPTFRNARYVLPLADRAYWDPQDASAGPAGIGAAVNAGMFDDSVRPIIEAGRAEWAEDGFEVAEGLVLRSCPGHTPGSMMLEVSGGEDTAMFVGDVVHHPAQIYRPEWNSIFCEAPEDARETRRRVLDLAASREALLIPAHFGGSHMARVLRDGSGFRPVLDPMGSG	not soluble
MGSDKIHHHHHHMDSLVVPGLDTLRRWLDEIGISFFECDSCQALHLPHMQNFDGIFDAKIDLVDNVVLFSALAEVKPSALLALSADLSAINASSLTVKAFIDIQDDNLPKLVVCQSLSIGPGVTMEQFAWFFRQSEEQISMVILEAGANQLLYKGEEEEPAAENVQYHFLH	not soluble
MGSDKIHHHHHHMDTIAESIQKKAYELGYEKCGIIPINLIDEYADKFNERMEKIPKSKMFYKSQERLIKPKEIYPWAKSVVVLTSVYGKYKVPQELNGHIAKAYLFDTRVDKNTKEYQNNRALEEYMQELGLKVETNQKFGVVGMRWAALQAGVGIIRRNNFLYTESGSWVHLEAWVTDRKMELKETNNVKKCPKSCNRCIMSCPTKSLSEPYTMSPTECVSFLTTFGGRNLPEEPLRKKFGDCIYGCDICQDACPMNKGKWKDEEEFPGLAELAPSLTPENILNMDEDFYREKVQPKFFYLSPEDLWKWKIDALCYIGNNYSESYKPLLVNACNNANNKISEMANLICSELSLQ	not soluble
